B1: SLC19A2 (parent)
chain: FASLRPSEPFLTPYLLGPDKNLTE

Variants of: B1
Test: protein stability index of a GFP-peptide fusion (GPS, HEK-293T) (PSI 1-6); higher = more stable
Details: c terminus: a fixed tail appended
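Note: lentivirally expressed fusions sorted by FACS into six bins by GFP to DsRed ratio, PSI derived from sequencing read proportions per bin multiplied by bin number.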

Point of comparison: SASLRPSEPFLTPYLLGPDKNLTE, protein stability index 4.12. Against it:
- FASLRPSEPFLTPYLLGPCKNLTE — lower, 1.44
- FASLRPSEPFLTPYLLGPAKNLTE — lower, 1.56
- FSSLRPSEPFLTPYLLGPDKNLTE — lower, 3.02
- FPSLRPSEPFLTPYLLGPDKNLTE — lower, 2.6
- FWSLRPSEPFLTPYLLGPDKNLTE — lower, 2.21
- FHSLRPSEPFLTPYLLGPDKNLTE — lower, 1.63
- FCSLRPSEPFLTPYLLGPDKNLTE — lower, 1.51
- FASLRPSEPFLTPYLLGPDKNFTE — lower, 1.62
- FASLRPSEPFLTPYLLGPDKNITE — lower, 1.86
- FASLRPSEPFLTPYLLGPDKNATE — lower, 2.1
- FASLRPSEPFLTPYLLGPDKNNTE — lower, 2.35
- FASLRPSEPFLTPYLLGPDKNQTE — lower, 1.99
- FASLRPSEPFLTPYLLGPDKNHTE — lower, 2.16
- FASLRPSEPFLTPYLLGPDKNGTE — lower, 2.04
- FASLRPSEPFLTPYLLGPDKCLTE — lower, 1.33
- FASLRPSEPFLTPYLLGPDKELTE — lower, 2.02
- FASLRPSEPFLTPYLLGPDKTLTE — lower, 1.56
- FASLRPSEPFLTPYLLGPDKMLTE — lower, 2.39
- FASLRPSEPFLTPYLLGPDKILTE — lower, 2.02
- FASLRPSEPFLTPYLLGPDKHLTE — lower, 1.29
- FASLRPSEPFLTPYLLGPDKVLTE — lower, 2.51
- GASLRPSEPFLTPYLLGPDKNLTE — higher, 4.22
- QASLRPSEPFLTPYLLGPDKNLTE — higher, 4.19
- MASLRPSEPFLTPYLLGPDKNLTE — lower, 3.65
- PASLRPSEPFLTPYLLGPDKNLTE — lower, 3.64
- IASLRPSEPFLTPYLLGPDKNLTE — lower, 3.47
- DASLRPSEPFLTPYLLGPDKNLTE — higher, 4.38
- FASLRPSEPFLTPYLLGPDKNLSE — lower, 1.7
- FASLRPSEPFLTPYLLGPDKNLHE — lower, 2.8
- FASLRPSEPFLTPYLLGPDKNLRE — lower, 1.42
- FASLRPSEPFLTPYLLGPDKNLWE — lower, 1.65
- FASLRPSEPFLTPYLLGPDKNLQE — lower, 3.16
- FASLRPSMPFLTPYLLGPDKNLTE — lower, 1.88
- FASLRPSVPFLTPYLLGPDKNLTE — lower, 2.14
- FASLRPSFPFLTPYLLGPDKNLTE — lower, 1.78
- FASLRPSCPFLTPYLLGPDKNLTE — lower, 1.68
- FASLRPSNPFLTPYLLGPDKNLTE — lower, 2.3
- FASLRPSDPFLTPYLLGPDKNLTE — lower, 1.63
- FASLRPSTPFLTPYLLGPDKNLTE — lower, 1.81
- FASLRPSEPFLTPYLLGPDKNLTV — lower, 1.49
- FASLRPSEPFLTPYLLGPDKNLTM — lower, 2.03
- FASLRPSEPFLTPYLLGPDKNLTD — lower, 2.01
- FASLRPSEPFLTPYLLGPDKNLTW — lower, 2.43
- FASLRPSEPFLTPYLLGPDKNLTI — lower, 2.1
- FASLRHSEPFLTPYLLGPDKNLTE — lower, 1.54
- FASLRGSEPFLTPYLLGPDKNLTE — lower, 1.71
- FASLRSSEPFLTPYLLGPDKNLTE — lower, 1.78
- FASLRDSEPFLTPYLLGPDKNLTE — lower, 2.17
- FASLRLSEPFLTPYLLGPDKNLTE — lower, 1.8
- FASLRMSEPFLTPYLLGPDKNLTE — lower, 1.36
- FASLRWSEPFLTPYLLGPDKNLTE — lower, 2.98
- FASLRTSEPFLTPYLLGPDKNLTE — lower, 2.7
- FASLCPSEPFLTPYLLGPDKNLTE — lower, 1.99
- FASLQPSEPFLTPYLLGPDKNLTE — lower, 2.34
- FASLIPSEPFLTPYLLGPDKNLTE — lower, 2.13
- FASLTPSEPFLTPYLLGPDKNLTE — lower, 1.98
- FASLSPSEPFLTPYLLGPDKNLTE — lower, 2.07
- FASLYPSEPFLTPYLLGPDKNLTE — lower, 2.39
- FASLHPSEPFLTPYLLGPDKNLTE — lower, 2.17
- FASLWPSEPFLTPYLLGPDKNLTE — lower, 2.43
- FASLMPSEPFLTPYLLGPDKNLTE — lower, 1.94
- FASLVPSEPFLTPYLLGPDKNLTE — lower, 2.6
- FASLRPSEPFTTPYLLGPDKNLTE — lower, 1.94
- FASLRPSEPFNTPYLLGPDKNLTE — lower, 1.78
- FASLRPSEPFHTPYLLGPDKNLTE — lower, 2.03
- FASLRPSEPFRTPYLLGPDKNLTE — lower, 1.81
- FASLRPSEPFATPYLLGPDKNLTE — lower, 2.42
- FASLRPSEPFGTPYLLGPDKNLTE — lower, 2.06
- FASLRPSEPFKTPYLLGPDKNLTE — lower, 2.03
- FASLRPSEPFLTPYSLGPDKNLTE — lower, 1.79
- FASLRPSEPFLTPYDLGPDKNLTE — lower, 2.43
- FASLRPSEPFLTPYPLGPDKNLTE — lower, 1.97
- FASLRPSEPFLTPYGLGPDKNLTE — lower, 1.77
- FASLRPSEPFLTPYYLGPDKNLTE — lower, 1.78
- FASLRPSEPFLTPYRLGPDKNLTE — lower, 1.68
- FASLRPSEPFLTPYTLGPDKNLTE — lower, 2.19
- FASLRPFEPFLTPYLLGPDKNLTE — lower, 2.01
- FASLRPNEPFLTPYLLGPDKNLTE — lower, 1.9
- FASLRPYEPFLTPYLLGPDKNLTE — lower, 1.42
- FASLRPCEPFLTPYLLGPDKNLTE — lower, 2.28
- FASLRPVEPFLTPYLLGPDKNLTE — lower, 2.27
- FASLRPMEPFLTPYLLGPDKNLTE — lower, 1.24
- FASLRPHEPFLTPYLLGPDKNLTE — lower, 2.03
- FASLRPWEPFLTPYLLGPDKNLTE — lower, 3.01
- FASLRPLEPFLTPYLLGPDKNLTE — lower, 1.72
- FASLRPSEPFLTPYLLGPDLNLTE — lower, 2.1
- FASLRPSEPFLTPYLLGPDSNLTE — lower, 2.29
- FASLRPSEPFLTPYLLGPDPNLTE — lower, 1.92
- FASLRPSEPFLTPYLLGPDHNLTE — lower, 1.97
- FASLRPSEPFLTPYLLGPDGNLTE — lower, 2.04
- FASLRPSEPFLTPYLLGPDMNLTE — lower, 1.98
- FASLRPSEPFLTPYLLGPDQNLTE — lower, 2.05
- FASLRPSEPFLTPYLLGPDWNLTE — lower, 2.04
